Experimental findings from US20090208976A1 are described below.

This assay addresses recombinant rat F1-ATPase β-subunit (purified protein) (rat) (UniProt P10719). Put plainly: BiaCore surface plasmon resonance, purified F1-ATPase β-subunit. Background: SPR reads the build-up and loss of mass on a sensor chip optically.
UniProt P10719, sequence (P10719 47-529): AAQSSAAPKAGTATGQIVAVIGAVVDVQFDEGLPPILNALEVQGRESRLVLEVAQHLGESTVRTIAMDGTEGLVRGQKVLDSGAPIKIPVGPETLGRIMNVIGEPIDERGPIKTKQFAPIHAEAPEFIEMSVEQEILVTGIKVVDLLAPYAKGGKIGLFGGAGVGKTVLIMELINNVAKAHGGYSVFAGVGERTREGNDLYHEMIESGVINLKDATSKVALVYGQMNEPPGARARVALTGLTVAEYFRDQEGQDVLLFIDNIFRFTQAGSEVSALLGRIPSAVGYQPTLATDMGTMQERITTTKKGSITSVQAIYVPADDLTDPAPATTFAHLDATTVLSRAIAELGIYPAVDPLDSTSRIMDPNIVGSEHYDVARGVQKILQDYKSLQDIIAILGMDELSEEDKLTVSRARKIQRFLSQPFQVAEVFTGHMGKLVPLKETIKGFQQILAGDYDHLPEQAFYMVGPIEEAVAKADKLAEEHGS

The term Kd denotes the free concentration of one partner at which half of the binding sites on the other are occupied at equilibrium, for simple one-to-one binding. enterostatin (peptide): the Kd was 150 nM.
